Read-outs that look alike come from different tables or passages of the source.
Assays:
BSA (Takara) = biological target: T1, BSA (Takara) (Bos taurus, UniProt P02769); assay: ELISA, antigen coated on the plate, detection with goat anti-human IgG-HRP, absorbance at 450 nm
T1 construct: commercial protein

[1] = biological target: T2, human c-Met antigen (Biacore analyte) (human, UniProt P08581 25-932, limits assumed); assay: SPR (Biacore), antibody immobilised on a CM5 chip, c-Met antigen injected
Method: (§1) Binding affinity of the IGTML4-4 antibody constructed in Example 1 to c-Met antigens was analyzed using a Biacore (available from GE Healthcare).

[2] = biological target: T3, mouse c-Met antigen (Biacore analyte) (mouse, UniProt P16056 25-931, limits assumed); assay: as above
Method: as §1

[3] = biological target: c-Met on human cells (Caki-1 cells, HUVECs, human primary hepatocytes) (human, UniProt P08581 25-1390); assay: cell-based or functional assay
[4] = biological target: T2, human c-Met antigen (Biacore analyte); assay: SPR (Biacore), antibody immobilised on a CM5 chip, c-Met antigen injected; remark: listed apart in the source
Method: as §1

[5] = biological target: T3, mouse c-Met antigen (Biacore analyte); assay: as above; remark: listed apart in the source
Method: as §1

T3 sequence (P16056 25-931 limits assumed): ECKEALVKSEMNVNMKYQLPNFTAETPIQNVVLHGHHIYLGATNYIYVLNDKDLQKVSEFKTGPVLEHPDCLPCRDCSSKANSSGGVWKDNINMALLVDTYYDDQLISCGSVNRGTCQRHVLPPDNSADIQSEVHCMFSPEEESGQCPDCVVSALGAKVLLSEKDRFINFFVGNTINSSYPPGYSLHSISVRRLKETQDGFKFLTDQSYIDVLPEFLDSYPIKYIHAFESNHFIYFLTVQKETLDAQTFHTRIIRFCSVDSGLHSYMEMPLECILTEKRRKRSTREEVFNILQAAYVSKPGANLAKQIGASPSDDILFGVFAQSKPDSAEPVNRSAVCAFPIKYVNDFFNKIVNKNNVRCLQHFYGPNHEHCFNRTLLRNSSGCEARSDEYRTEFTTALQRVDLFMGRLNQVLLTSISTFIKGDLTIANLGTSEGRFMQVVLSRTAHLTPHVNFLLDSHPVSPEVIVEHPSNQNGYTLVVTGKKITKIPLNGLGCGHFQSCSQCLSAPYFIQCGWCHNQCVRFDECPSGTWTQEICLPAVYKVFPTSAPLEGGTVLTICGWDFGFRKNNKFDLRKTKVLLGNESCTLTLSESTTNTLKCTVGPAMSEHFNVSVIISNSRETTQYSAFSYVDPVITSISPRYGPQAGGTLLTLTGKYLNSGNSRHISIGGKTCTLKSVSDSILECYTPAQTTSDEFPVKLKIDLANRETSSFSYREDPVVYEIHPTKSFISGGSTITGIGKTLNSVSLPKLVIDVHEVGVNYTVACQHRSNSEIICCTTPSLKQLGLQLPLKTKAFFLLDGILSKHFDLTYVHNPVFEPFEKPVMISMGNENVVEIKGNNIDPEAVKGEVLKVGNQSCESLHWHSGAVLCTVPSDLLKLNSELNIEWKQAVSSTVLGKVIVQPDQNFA
T2 sequence (P08581 25-932 limits assumed): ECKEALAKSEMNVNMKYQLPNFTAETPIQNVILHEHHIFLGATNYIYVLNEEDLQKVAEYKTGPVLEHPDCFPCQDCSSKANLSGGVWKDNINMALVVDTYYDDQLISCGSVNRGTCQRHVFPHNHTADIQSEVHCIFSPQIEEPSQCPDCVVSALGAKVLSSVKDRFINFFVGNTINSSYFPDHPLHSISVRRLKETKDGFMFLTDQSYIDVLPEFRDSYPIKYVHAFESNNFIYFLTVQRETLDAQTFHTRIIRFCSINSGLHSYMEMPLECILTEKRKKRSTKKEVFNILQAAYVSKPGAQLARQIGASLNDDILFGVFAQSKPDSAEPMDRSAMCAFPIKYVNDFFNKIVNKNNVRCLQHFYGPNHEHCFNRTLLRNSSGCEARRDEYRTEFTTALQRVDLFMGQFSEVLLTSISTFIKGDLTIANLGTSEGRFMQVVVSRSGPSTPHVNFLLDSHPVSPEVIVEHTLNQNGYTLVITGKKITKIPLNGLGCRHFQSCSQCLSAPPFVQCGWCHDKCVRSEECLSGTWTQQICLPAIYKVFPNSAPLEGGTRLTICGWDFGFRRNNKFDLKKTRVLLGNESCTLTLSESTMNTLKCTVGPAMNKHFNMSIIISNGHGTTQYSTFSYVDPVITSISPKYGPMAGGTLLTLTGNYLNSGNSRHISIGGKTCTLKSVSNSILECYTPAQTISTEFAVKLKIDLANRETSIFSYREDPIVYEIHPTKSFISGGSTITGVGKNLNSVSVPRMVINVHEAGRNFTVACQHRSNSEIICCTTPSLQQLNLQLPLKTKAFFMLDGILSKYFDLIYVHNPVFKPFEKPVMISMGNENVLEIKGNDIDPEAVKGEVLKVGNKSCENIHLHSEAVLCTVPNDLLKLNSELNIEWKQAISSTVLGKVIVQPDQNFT
T1 sequence (P02769 25-607 limits assumed): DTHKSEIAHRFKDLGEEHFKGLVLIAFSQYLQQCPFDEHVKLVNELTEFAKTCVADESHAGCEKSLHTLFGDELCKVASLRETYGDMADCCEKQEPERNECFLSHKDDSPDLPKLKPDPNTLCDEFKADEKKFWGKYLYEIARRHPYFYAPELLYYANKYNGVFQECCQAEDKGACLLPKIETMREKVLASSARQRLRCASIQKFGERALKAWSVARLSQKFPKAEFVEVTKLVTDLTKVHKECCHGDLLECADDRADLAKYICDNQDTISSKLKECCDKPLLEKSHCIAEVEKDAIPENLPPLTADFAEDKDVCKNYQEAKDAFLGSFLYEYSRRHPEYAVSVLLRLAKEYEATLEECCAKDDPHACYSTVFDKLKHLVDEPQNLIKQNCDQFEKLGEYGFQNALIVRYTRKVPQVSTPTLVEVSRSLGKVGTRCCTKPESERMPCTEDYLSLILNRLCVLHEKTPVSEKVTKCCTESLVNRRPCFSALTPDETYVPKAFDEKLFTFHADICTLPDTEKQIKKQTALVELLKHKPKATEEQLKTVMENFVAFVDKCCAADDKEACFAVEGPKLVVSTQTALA
c-Met on human cells (Caki-1 cells, HUVECs, human primary hepatocytes), sequence (P08581 25-1390): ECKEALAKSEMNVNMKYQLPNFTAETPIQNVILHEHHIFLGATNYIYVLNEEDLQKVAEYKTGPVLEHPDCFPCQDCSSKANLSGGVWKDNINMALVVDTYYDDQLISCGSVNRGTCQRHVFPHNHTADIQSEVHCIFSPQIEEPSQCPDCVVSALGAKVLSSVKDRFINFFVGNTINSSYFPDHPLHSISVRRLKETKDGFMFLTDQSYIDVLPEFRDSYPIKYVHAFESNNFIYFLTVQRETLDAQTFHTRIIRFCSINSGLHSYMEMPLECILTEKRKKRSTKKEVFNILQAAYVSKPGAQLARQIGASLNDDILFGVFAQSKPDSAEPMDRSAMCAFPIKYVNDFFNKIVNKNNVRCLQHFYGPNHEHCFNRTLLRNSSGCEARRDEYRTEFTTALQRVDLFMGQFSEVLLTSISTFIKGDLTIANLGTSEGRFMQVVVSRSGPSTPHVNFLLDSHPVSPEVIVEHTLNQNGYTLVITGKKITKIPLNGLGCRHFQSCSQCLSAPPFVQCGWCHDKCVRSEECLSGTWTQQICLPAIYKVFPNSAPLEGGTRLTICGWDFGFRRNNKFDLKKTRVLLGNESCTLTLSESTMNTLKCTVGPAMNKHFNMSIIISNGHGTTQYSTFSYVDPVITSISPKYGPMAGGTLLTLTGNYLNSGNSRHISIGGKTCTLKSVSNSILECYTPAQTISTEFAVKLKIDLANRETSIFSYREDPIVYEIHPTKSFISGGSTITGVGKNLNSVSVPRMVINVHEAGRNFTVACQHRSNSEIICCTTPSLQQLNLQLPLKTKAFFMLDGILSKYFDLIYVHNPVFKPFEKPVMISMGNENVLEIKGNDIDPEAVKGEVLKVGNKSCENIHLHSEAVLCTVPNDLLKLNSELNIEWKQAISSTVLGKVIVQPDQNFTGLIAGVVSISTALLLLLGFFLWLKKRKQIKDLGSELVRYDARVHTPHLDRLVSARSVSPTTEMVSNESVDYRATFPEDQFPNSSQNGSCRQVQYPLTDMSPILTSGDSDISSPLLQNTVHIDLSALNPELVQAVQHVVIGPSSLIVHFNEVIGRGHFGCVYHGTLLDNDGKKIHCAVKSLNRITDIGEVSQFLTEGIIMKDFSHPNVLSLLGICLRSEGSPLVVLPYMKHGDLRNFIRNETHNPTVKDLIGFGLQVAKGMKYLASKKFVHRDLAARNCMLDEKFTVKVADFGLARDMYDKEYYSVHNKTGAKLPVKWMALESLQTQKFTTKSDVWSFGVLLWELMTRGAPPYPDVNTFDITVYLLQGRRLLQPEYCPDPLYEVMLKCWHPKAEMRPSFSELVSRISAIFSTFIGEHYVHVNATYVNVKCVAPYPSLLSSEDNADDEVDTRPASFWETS

binding result (BSA (Takara)): no binding
Kd [1]: 0.398 nM
koff [1]: 0.000188 s⁻¹
kon [1]: 471000 M⁻¹ s⁻¹
Kd [2]: 0.304 nM
koff [2]: 0.000168 s⁻¹
kon [2]: 553000 M⁻¹ s⁻¹
degree of Akt phosphorylation relative to the 5D5 antibody (Caki-1 cells, 5 µg/ml antibody, phospho-AKT1 Ser473 sandwich ELISA) [3]: ~84%
Kd [4]: < 1 nM
Kd [5]: < 1 nM
B1: IGTML4-4 antibody (antibody, V domains shown)
VH: QVQLLQSGGGLVQPGGSLRVSCAASGFRFSMYVMTWVRQAPGKGLEWVSEISASGASTYYADSVKGRFTMSRDNSKNTVFLQMNSLRVEDTAVYYCARAYRYGMDVWGQGTMVTVSS
VL: DIVMTQSPSSVSASVGDRVTLTCRASQNIGSWLAWYQQKPGNAPKLLIYRASNLRSGVPSRFSGSGSGTDFTLTISSLQPEDFATYFCQQATIFPLTFGGGTRVDIKR
notes: also called anti c-Met antibody
